The nature of the data set: yeast display, Sf9 membrane polyspecificity reagent, FACS + sequencing; frameworks hold sequencing errors. An outline of the steps: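 Nanobodies from a synthetic yeast display library (Saccharomyces cerevisiae BJ5465), induced 36–48 hours with galactose, were stained 1 hour at 4 °C with 10% biotinylated, detergent-solubilized Sf9 membrane reagent, enriched on streptavidin microbeads, then FACS-sorted. Anti-HA (expression) and streptavidin (reagent binding) fluorescence set low and high (top ~1%) gates. Polyreactivity labels come from the gate of origin. Genes were colony-PCR amplified, MiSeq 2 × 250 sequenced and filtered by CDR length.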
As for “QVQLVESGGGLVQAGGSLRLSCAASGSICGSYAMGWYRQAPGKERELVAAITRSGSRTYYADSVKGRFTISRDNAKNTVYLQMISLKPEDTAVYFCATGYPGGFDYWGQGTQVTVSS”, the “polyreactivity (PSR sort gate)” value was “high polyreactivity”. On to “QVQLVESGGGLVQAGGSLRLSCAASGFILYFNAMGWYRQAPGKERELVAVISGTGVRTNYADSVKGRFTISRDNAKNTVYLQMYSLKPEDTAVYYCAAGYYSYRPRDYWGQGTQVTVSS”, for which the “polyreactivity (PSR sort gate)” value is recorded as “low polyreactivity”. With “QVQLVESGGRLVQAGGSLRFTCAASGSIFYSYAMGWYRQAPGKERELLAAINYSGSSTYYADSVKGRFTISRDNAKNTVYLQMNSLKPEDTAVYYCAAVIHSQYVDYYYWGQGTQVTVSS”, the “polyreactivity (PSR sort gate)” value is reported as “high polyreactivity”.

“QVQLVESGGGLVQAGGSLRLSCAASGFTFKLNAMGWYRQAPGKERELVAAISWGGGTTYYADSVKGRFTISRDNAKNTVYLQMNSLKPEDTAVYYCAADGTGTYDYWGQGTQVTVSS”: the “polyreactivity (PSR sort gate)” value was “low polyreactivity”. Turning to “QAQLQESGGSLLQAGGGLRLSCAASGYISVGSVMGWYRQAPSKERELVASIDQGANTNYADSVKGRYTISRDNAKNNVYLQMNSLKPEDSAVYYCATETTYILNYWGQGTQVTVSS”, the “polyreactivity (PSR sort gate)” value is recorded as “low polyreactivity”. Take “QVQLVESGGVLVQAGGSLRLSCAASGRIFTGNAMGWYRQAPGKETELVAAISRRGTRTYYADSVKGRFTISRDNAKNTVYLQMNSLKPEDTAVYYCATVLYKAYNDYGYWGQGTQVTVSS”: the “polyreactivity (PSR sort gate)” value is “high polyreactivity”.

“QVQLVESGGGLVQAGGSLRLSCAASGSIQYRYAMGWYRQAPGKERELVAAITRSGGSTYYADSVKGRFTISRDNAKNTVYLQMNSLKPEDTAVYYCARQRKVSAHSIEMDYWGQGTQVTVSS”: the “polyreactivity (PSR sort gate)” value is “low polyreactivity”.

Take “QVQLVESGGGLVQAGGSLRLSCAASGFIFNAYAMGWYRQAPGKERELVAAVSWSGARTYYADSVKGRFTISRDNAKNTVYLQMNSLKPEDTAVYYCAAEYSGVHYQQAYDYSEGLDYWGQGTQVTVSS”: the “polyreactivity (PSR sort gate)” value is on record as “low polyreactivity”. To “QVQLVESGGGLVQAGGSLRLSCAASGRIFSTYAMGWYRQAPGKERELVAAITWDGRTYYADSVKGRFTISRDNAKNTVYLQMNSLKPEDTAVYYCAADGEYRYDWEYESWGQGTQVTVSS” belongs “low polyreactivity”; to “QDQLVESVVGLDQAGVSLRLSSAASGRTFRKYAMGCSRQAHGKERELVAAITSSGARTYYADSVKGRFTISRDNAKNTVYLQMNSLKPEDTAVYYCNAVSPYYGIEFEYWGLGTQVTVSS”, “high polyreactivity”. On to “QVQLVESGGGLVQAGGSLRLSCAASGSTFYNNAMGWYRQAPGKEREFVAAIRYRGGSTYYADSVKGRFTISRDNAKNTVYLQMNSLKPEDTAVYYCAADQGVYRTYWVDYWGQGTQVTVSS”, for which the “polyreactivity (PSR sort gate)” value was “high polyreactivity”. To “QVQLVESGGGLVQAGGSLRLSCAASGNIFVGNDMGWYRQAPGKERELVAAISSGDTTSYADSVKGRFTISRDNAKNTVYLQMNSLKPEDTAVYYCNTDAPYLLWFTNRYDYWGQGTQVTVSS” belongs “low polyreactivity”; to “QVQLVESGGGLDQAGGSLSLSCAASGYTYRLYAMGWYRQAPGKERELVAAITWRGGSTYYADSVKGRFTISRDNAKNTVYLQMNSLKPEDTAVYYCAAEFYIGRQGNYWGLGTQVTVSS”, “high polyreactivity”; to “QVQLVESGGGLVQAGGSLRLSCAASGSIFAYYAMGWYRQAPGKERELVASISSVGTTKYADSVKGRFTISRDNAKNTVYLQMNSLKPEDTAVYYWATDGYSPAAFDYWGQGTQVTVSS”, “low polyreactivity”. As to “QVQLVESGGGLVQAGGSLRLSCAASGFTFHSYAMGWYRQAPGKDRELVAAISRGGGNTYYADSVKGRFTISRDNAKNTVYLQMNSLKPEDTAVYYCAADAIYNFEMDYWGQGTQVTVSS”, the “polyreactivity (PSR sort gate)” value is “high polyreactivity”.

Take “QVQLVESGGGLVQAGGSLRLSCAASGGTIAPYAMVWYRQAPGKERELVATISYSGTSTNYADSVKGRFTITRDNAKNTVYLQMNSLKPEDTAVYYCYAVLYARQRDRWARYDYWGQGTQVTVSS”: the “polyreactivity (PSR sort gate)” value is on record as “high polyreactivity”. To “QVQLVESGGGLVQAGGSLRLSCAASGITFRYYTMGWYRQAPGKERELVAAITWSGSSTYYADSVKGRFTISRDNAKNTVYLQMNSLKPEDTAVYYCNAVPYDYLADYWGQGTQVTVST” belongs “low polyreactivity”; to “QVQLVESGGGLVQAGGSLRLSCAASGSTSYVYATGGYRQAPGKERELVAAISGSGGRTYYADSVKGRFTISRDNAKNTVYLQMNSLKPEDTAVYYCNALPRPSYPFDYWGQGTQVTVSS”, “high polyreactivity”; to “QVQLVESGGGLVQAGGSLRLSCAASGFIFHTYAMGWYRQAPGKERELVAAISGGTSSTYYADSVKGRFTISRDNAKNTVYLQMNSLKPEDTAVYYCAARSRRGGYPRYYYWGQGTQVTVSS”, “high polyreactivity”. Turning to “QVQLVESGGGLVQAGGSLRLSCAASGFTFVYYVMGWYRQAPGKERELVAAINAGGGSTYYADSVKGRFTISRDNAKNTVYLQMNSLKPEDTAVYYCYARVRVRLGRNWSSYYYWGQGTQVNVSS”, the “polyreactivity (PSR sort gate)” value was “high polyreactivity”. As for “QVQLVESGGGLVQAGGSLRLSCAASGSIIKAYAMGWYREAAGKERELVATITRSGVSTYYADSVNGRFTISRDNAKNTVYLQMKSLKPEDTAVYYCNRTGYVRFYITQQRGYFRYDYWGQGTQVTVSS”, the “polyreactivity (PSR sort gate)” value is given as “low polyreactivity”. “QVQLVESCGGLVQAGGSLRLSCAASGLIFRPNAMGWYRQAPAKERELVAAISGGGGSTYYADSVKGRFTISRDNAKNTVYLQMKSLKPEDTAVYYCNARKLVNRYPVIGVETYDYWGQGTQVTVSS”: the “polyreactivity (PSR sort gate)” value is “low polyreactivity”.

For the sequence “QVQLVESGGGLVQAGGSLRLSCAASGSIFGYYAMGWYRQAPGKERELVAAISRRGGSTYYADSVKGRFTISRDNAKNTVYLQMNSLKPEDTAVYYCAAVGGYASYFHLYYYWGQGTQVTVSS”, the “polyreactivity (PSR sort gate)” value is listed as “high polyreactivity”. As to “QVQLVESGGGLVQAGGSLRLSCAASGSTFGWNAMGWYRQAPGKERELVAAISSSGGITYYADSVKGRFTISRDNAKNTVYLQMNSLKPEDSAVYYCAAERDDDWVNYWGQGTQVTVSS”, the “polyreactivity (PSR sort gate)” value was “low polyreactivity”.

In the case of “QVQLVESGGGLVQAGGSLRLSCAASGFIFYTYAMGWYIQAPGKERELVAAINTSGSTTNYADSVKGRFTISRDNAKNTVYLQMNSLKPEDTAVYYCAAEWNVSPYDYWGQGTQVTVSS”, the “polyreactivity (PSR sort gate)” value is recorded as “low polyreactivity”. With “QVQLVESGGGLVQAGGSLRLSCAASGFTFGRYAMGWYRQAPGKERELVATITRTGSTNYADSVKGRFTISRDNAKNTVYLQMNSLKPEDTAVYYCNAGPDRRVSYYRLLDHWGQGTQVTVSS”, the “polyreactivity (PSR sort gate)” value is recorded as “low polyreactivity”.

With “QVQLVESGGGLVQAGGSLRLSCAASGRIFERYAMGWYRQAPGKERELVAGISISGGGTYYADSVKGRFTISRDNAKNTFYLQMNSLNPEDTAVYYCSATFPREEYGYWGQGTQVTVSS”, the “polyreactivity (PSR sort gate)” value is “low polyreactivity”. “QVQLVESGGGLVQAGGSLRLSCAASGSIFLSYTMGRYRQAPGKERELVAAITSGGSTKYADSVKGRFTISRDNAKNTVYLQMNSLKPEDTAVYYCNATPYSRLGYWGQGTQVTVSS”: the “polyreactivity (PSR sort gate)” value is on record as “high polyreactivity”. With “QVQLVESGGGLVQAGGSLRLSCAASGFTLGYNAMGWYRQAPGKERQLVAGITWSGGSTSYADSVKGRFTISRDNAKNTVYLQMNSLKPEDTAVYYCAKLRRYSGWLPWPYAYDYWGLGTQVTVSS”, the “polyreactivity (PSR sort gate)” value is reported as “high polyreactivity”. Consider “QVQLVESGGGLVQAGVSLRLSCAASGRIFYHNAMGWYRQAPGKEREFVAAISSRGGTTYYADSVKGRFTISRDNAKKTVYLQMNILKPEDTAVYYCAKQYYSASPAKGDYWGQGTQVTVSS”, for which the “polyreactivity (PSR sort gate)” value is “high polyreactivity”. To “QVQIVESGGGLVQAGGSLSLSCAASGRTFVLYVMGWYRQAPWKEREFVADINAGGGSTYYADSVKGRFTISRDNAKNTVYLQMNSLKPEDTAVYYCAATRDLGQLFRFGYWGQGTQVTVSS” belongs “low polyreactivity”. Take “QVQLVESGGGLVQAGGSLRLSCAASGSIFYYYTMGWYRAAPGKERELVAGISRSGDRTYYADSVKGRFTISRDNAKNTVYLQMNSLKPEVTAVYYCATRWSSARMDYWGQGTQVTVSS”: the “polyreactivity (PSR sort gate)” value is listed as “high polyreactivity”. Regarding “QVQLVESAGGLFQAGGSLRLSCAASGRTFYSNTMGWYRQAPGKEREFVAAIPSIVGSTYYADSVKGRFTISRDNSKNTVYLQMKSLKPEDTAVYDCAVTDYYSYLLRYDSWGQGTEVTVSS”, the “polyreactivity (PSR sort gate)” value is on record as “low polyreactivity”.

For “QVQLVESGGGIVQAGGSLRLSCAASGNNFSLNGMGWYRQAPGKEREFLAAITWSVGSTYYAYSVNGRLTISRDNAKNTVYLQMNSLKPEDTAVYDCAATVSDLYKNEYYYWGLGTQVTVSS”, the “polyreactivity (PSR sort gate)” value is “low polyreactivity”. As for “QVQLVESGGGLVQAGGSLRLSCAASGSIFYGYAMGWYRPAPGKERELVAAITSGGRTYYADSVKGRFTISRDNAKNTVYLQMNSLKPEDTAVYYCNKLNYWSVRYEYWGQGTQVTVSS”, the “polyreactivity (PSR sort gate)” value is reported as “high polyreactivity”. To “QVQHVESGGGLVQAGGSLRLSCAASGFTFGYYAMGWYRQAPGKERELVAAISGSGGGTYYADSVKGRFTISRDNAKNTVYLQMNSLKPEDTAVYYCNTGRYDRKYDYWGQGTQVTVSS” belongs “high polyreactivity”; to “QVQLVESGGGLVQAGGSLRLSCAASGFTFVQYAMGWYRPAPGKERELVATISKSGGITYYADSVKGRFTISRDTAKNTVYLHMNSVKPEDTAVYYCAAAWYYSSRGFHATWGHDYWGQGTQVTVSS”, “low polyreactivity”. With “QVQLVESGGGLVQAGGSLRLSCAASGSTFAFYAMGWYRQAPGKERELVAAISSSGARTYYADSVKGRFTLSRDNAKNTVYLQMNSLKPEDTAVYYCAAAFYRLYITSYYYWGQGTQVTVSS”, the “polyreactivity (PSR sort gate)” value is reported as “high polyreactivity”. “QVQLVESGGGLVQAGGSLRLSCAASGRTFGTYAMGWYRQAPGKERELVAAITSGTRTYYADSVKGRFTISRDNAKNTVYLQMNSLKPEDTAVYDCAAGLVYRWSSTPRRLYYYWGQGTQVTVSS”: the “polyreactivity (PSR sort gate)” value is “high polyreactivity”. To “QVQLVESGGGLVQAGGSLRLSCAASGFTFSTYTMGWYRPAPGKVRELVAAITWTGGRKYYADSVKGRFTISRDNAKNTVFLQMNSLKPEDTAVYYCNRAGYTGAEVYGYDYWGQGTQVTVSS” belongs “high polyreactivity”; to “QVQLVESGGGLVQAGGSLRLSCAASGSIFVYNAMGWYRQAPGKERELVAGITFIGGSTYYADPVKGRFTISRDNAKNTVYLQMNSLKPEDTAVYYCNADVAPGIFYGYDSWGQGTQVTVSS”, “low polyreactivity”.

Values taken from the nanobody polyreactivity screen of Harvey et al. (2022).
